# Assay results taken from the MegaScale stability set (Tsuboyama et al. 2023).
# B1: 6NMW (parent)
# chain: QGDIVVALYPYDGIHPDDLSFKKGEKMKVLEEHGEWWKAKSLLTKKEGFIPSNYVAKLN
# Variants of: B1
# Experiment: folding stability dG (cDNA display proteolysis); higher = more stable
# Details: PBS, room temperature
row,Variant,folding stability dG
1,K45L,4.49 kcal/mol
2,K45I,1.8 kcal/mol
3,K45P,0.596 kcal/mol
4,K45V,1.61 kcal/mol
5,K45N,4.22 kcal/mol
6,K45D,4.09 kcal/mol
7,K45H,4.6 kcal/mol
8,K45T,3.1 kcal/mol
9,K45W,4.01 kcal/mol
10,K45S,3.89 kcal/mol
11,K45A,3.94 kcal/mol
12,K45R,3.65 kcal/mol
13,K45M,4.29 kcal/mol
14,K45F,4.45 kcal/mol
15,K45Y,3.97 kcal/mol
16,K45E,4.09 kcal/mol
17,K45Q,4.25 kcal/mol
18,A56C,4.6 kcal/mol
19,A56P,0.083 kcal/mol
20,A56E,3.61 kcal/mol
21,A56N,2.24 kcal/mol
22,A56I,4.4 kcal/mol
23,A56M,4.36 kcal/mol
24,A56L,3.61 kcal/mol

row,Variant,folding stability dG
1,A56Q,3.85 kcal/mol
2,A56H,3.07 kcal/mol
3,A56D,2.03 kcal/mol
4,A56G,2.51 kcal/mol
5,A56K,4.04 kcal/mol
6,A56F,3.43 kcal/mol
7,L43Y,3.26 kcal/mol
8,L43W,4.56 kcal/mol
9,L43V,3.56 kcal/mol
10,L43S,3.38 kcal/mol
11,L43E,3.22 kcal/mol
12,L43C,3.7 kcal/mol
13,L43Q,2.88 kcal/mol
14,L43D,3.14 kcal/mol
15,L43A,3.2 kcal/mol
16,L43P,0.475 kcal/mol
17,L43G,2.02 kcal/mol
18,L43K,3.17 kcal/mol
19,L43H,3.1 kcal/mol
20,L43N,2.4 kcal/mol
21,L43F,3.03 kcal/mol
22,L43I,3.26 kcal/mol
23,L43R,3.66 kcal/mol
24,L43M,3.25 kcal/mol

row,Variant,folding stability dG
1,S41G,-0.006 kcal/mol
2,S41R,0.201 kcal/mol
3,S41F,-0.464 kcal/mol
4,S41Q,0.463 kcal/mol
5,S41L,1.15 kcal/mol
6,S41I,1.28 kcal/mol
7,S41N,1.9 kcal/mol
8,S41E,-0.037 kcal/mol
9,S41A,1.22 kcal/mol
10,S41M,1.38 kcal/mol
11,S41H,2.95 kcal/mol
12,S41K,1.64 kcal/mol
13,S41Y,0.369 kcal/mol
14,S41D,0.362 kcal/mol
15,S41V,1.06 kcal/mol
16,S41W,0.288 kcal/mol
17,S41C,1.48 kcal/mol
18,S41T,0.669 kcal/mol
19,L42Y,2.14 kcal/mol
20,L42V,1.88 kcal/mol
21,L42A,0.615 kcal/mol
22,L42K,0.463 kcal/mol
23,L42M,3.09 kcal/mol
24,L42H,1.02 kcal/mol

row,Variant,folding stability dG
1,L42N,0.819 kcal/mol
2,L42W,1.06 kcal/mol
3,L42I,2.51 kcal/mol
4,L42F,2.83 kcal/mol
5,L42E,1.82 kcal/mol
6,L42R,0.165 kcal/mol
7,L42G,-0.156 kcal/mol
8,L42T,1.47 kcal/mol
9,L42C,4.16 kcal/mol
10,L42D,0.832 kcal/mol
11,L42P,-0.897 kcal/mol
12,L42Q,1.32 kcal/mol
13,L42S,0.699 kcal/mol
14,K38F,4.92 kcal/mol
15,K38Q,2.39 kcal/mol
16,K38G,0.033 kcal/mol
17,K38I,3.44 kcal/mol
18,K38R,4.06 kcal/mol
19,K38C,3.63 kcal/mol
20,K38E,1.49 kcal/mol
21,K38H,2.92 kcal/mol
22,K38S,1.83 kcal/mol
23,K38T,2.18 kcal/mol
24,K38P,0.337 kcal/mol

row,Variant,folding stability dG
1,K38V,3.34 kcal/mol
2,K38A,1.72 kcal/mol
3,K38M,3.87 kcal/mol
4,K38N,1.45 kcal/mol
5,P51Y,1.26 kcal/mol
6,P51V,-0.225 kcal/mol
7,P51C,2.34 kcal/mol
8,P51F,1.25 kcal/mol
9,P51E,0.647 kcal/mol
10,P51R,1.7 kcal/mol
11,P51S,1.19 kcal/mol
12,P51K,1.62 kcal/mol
13,P51D,1.08 kcal/mol
14,P51I,0.759 kcal/mol
15,P51L,1.54 kcal/mol
16,P51T,-0.429 kcal/mol
17,P51Q,1.09 kcal/mol
18,P51N,2.28 kcal/mol
19,P51H,1.83 kcal/mol
20,P51M,1.59 kcal/mol
21,P51G,0.115 kcal/mol
22,P51A,0.249 kcal/mol
23,P51W,1.33 kcal/mol
24,Y54W,2.19 kcal/mol

row,Variant,folding stability dG
1,Y54P,-0.857 kcal/mol
2,Y54G,0.76 kcal/mol
3,Y54H,2.9 kcal/mol
4,Y54K,2.44 kcal/mol
5,Y54A,2.58 kcal/mol
6,Y54M,3.17 kcal/mol
7,Y54C,2.85 kcal/mol
8,Y54R,2.74 kcal/mol
9,Y54E,0.003 kcal/mol
10,Y54D,-0.435 kcal/mol
11,Y54V,1.29 kcal/mol
12,Y54I,2.17 kcal/mol
13,Y54F,3.51 kcal/mol
14,Y54T,1.16 kcal/mol
15,Y54Q,1.44 kcal/mol
16,Y54S,1.81 kcal/mol
17,Y54N,1.04 kcal/mol
18,Y54L,3.67 kcal/mol
19,A39M,1.64 kcal/mol
20,A39S,0.729 kcal/mol
21,A39F,-0.401 kcal/mol
22,A39G,1.44 kcal/mol
23,A39Y,-0.228 kcal/mol
24,A39L,1.97 kcal/mol

row,Variant,folding stability dG
1,A39V,4.31 kcal/mol
2,A39W,-0.54 kcal/mol
3,A39I,1.95 kcal/mol
4,A39T,1.32 kcal/mol
5,A39C,4.07 kcal/mol
6,G48S,-0.544 kcal/mol
7,G48Y,0.585 kcal/mol
8,G48W,-0.877 kcal/mol
9,G48A,-0.512 kcal/mol
10,G48C,0.255 kcal/mol
11,G48N,-0.967 kcal/mol
12,G48H,-0.819 kcal/mol
13,G48F,0.034 kcal/mol
14,G48K,0.081 kcal/mol
15,E47N,1.81 kcal/mol
16,E47Y,2.25 kcal/mol
17,E47V,4.3 kcal/mol
18,E47K,2.55 kcal/mol
19,E47I,4.37 kcal/mol
20,E47W,2.14 kcal/mol
21,E47Q,3.21 kcal/mol
22,E47L,2.59 kcal/mol
23,E47S,3.47 kcal/mol
24,E47C,3.83 kcal/mol

row,Variant,folding stability dG
1,E47F,2.36 kcal/mol
2,E47A,2.77 kcal/mol
3,E47M,3.2 kcal/mol
4,E47H,2.22 kcal/mol
5,E47R,2.28 kcal/mol
6,E47D,1.89 kcal/mol
7,E47G,1.26 kcal/mol
8,W37K,3.8 kcal/mol
9,W37I,3.96 kcal/mol
10,W37C,3.04 kcal/mol
11,W37M,4.7 kcal/mol
12,W37V,3.04 kcal/mol
13,W37F,4.79 kcal/mol
14,W37T,2.67 kcal/mol
15,W37D,0.168 kcal/mol
16,W37N,1.19 kcal/mol
17,W37G,-0.016 kcal/mol
18,W37P,1.7 kcal/mol
19,W37S,2.26 kcal/mol
20,W37H,2.59 kcal/mol
21,W37A,2.24 kcal/mol
22,W37R,2.28 kcal/mol
23,W37Q,1.99 kcal/mol
24,W37E,-0.118 kcal/mol

row,Variant,folding stability dG
1,K40R,4.32 kcal/mol
2,K40F,3.63 kcal/mol
3,K40S,2.8 kcal/mol
4,K40C,3.71 kcal/mol
5,K40I,3.96 kcal/mol
6,K40Y,3.79 kcal/mol
7,K40E,2.86 kcal/mol
8,K40L,3.84 kcal/mol
9,K40M,4.1 kcal/mol
10,K40N,1.04 kcal/mol
11,K40G,1.1 kcal/mol
12,K40V,4.24 kcal/mol
13,K40Q,3.88 kcal/mol
14,K40A,3 kcal/mol
15,K40W,3.24 kcal/mol
16,K40T,2.76 kcal/mol
17,N53T,3.74 kcal/mol
18,N53V,2.88 kcal/mol
19,N53R,4.09 kcal/mol
20,N53C,4.41 kcal/mol
21,N53L,3 kcal/mol
22,N53I,2.98 kcal/mol
23,N53K,3.93 kcal/mol
24,N53E,3.19 kcal/mol

row,Variant,folding stability dG
1,N53W,4.69 kcal/mol
2,N53Y,3.12 kcal/mol
3,N53H,3.87 kcal/mol
4,N53A,4.07 kcal/mol
5,N53Q,3.5 kcal/mol
6,N53M,3.07 kcal/mol
7,N53S,4.5 kcal/mol
8,N53D,3.14 kcal/mol
9,N53F,3.06 kcal/mol
10,N53G,3.47 kcal/mol
11,N53P,1.68 kcal/mol
12,V55P,-0.707 kcal/mol
13,V55Y,0.703 kcal/mol
14,V55E,-0.519 kcal/mol
15,V55G,0.112 kcal/mol
16,V55K,0.066 kcal/mol
17,V55H,-0.417 kcal/mol
18,V55F,4.1 kcal/mol
19,V55A,1.47 kcal/mol
20,V55I,2.12 kcal/mol
21,V55T,1.68 kcal/mol
22,V55L,1.18 kcal/mol
23,V55M,1.6 kcal/mol
24,V55S,-0.255 kcal/mol

row,Variant,folding stability dG
1,V55W,0.199 kcal/mol
2,V55C,2.7 kcal/mol
3,W36M,3.29 kcal/mol
4,W36T,2.87 kcal/mol
5,W36L,2.85 kcal/mol
6,W36Q,2.51 kcal/mol
7,W36V,3.3 kcal/mol
8,W36N,2.13 kcal/mol
9,W36Y,3.49 kcal/mol
10,W36P,1.14 kcal/mol
11,W36S,2.15 kcal/mol
12,W36R,4.45 kcal/mol
13,S52T,2.23 kcal/mol
14,S52C,3.84 kcal/mol
15,S52I,2.91 kcal/mol
16,S52W,3.1 kcal/mol
17,S52Q,3.31 kcal/mol
18,S52N,2.58 kcal/mol
19,S52P,3.65 kcal/mol
20,S52F,2.85 kcal/mol
21,S52G,2.51 kcal/mol
22,S52H,2.96 kcal/mol
23,S52E,1.64 kcal/mol
24,S52Y,3.08 kcal/mol

row,Variant,folding stability dG
1,S52K,4.84 kcal/mol
2,S52V,3.02 kcal/mol
3,S52A,4.05 kcal/mol
4,S52D,1.16 kcal/mol
5,S52L,2 kcal/mol
6,S52M,3.52 kcal/mol
7,S52R,4.29 kcal/mol
8,F49T,2.25 kcal/mol
9,F49N,3.4 kcal/mol
10,F49R,3.83 kcal/mol
11,F49Q,2.25 kcal/mol
12,F49D,1.19 kcal/mol
13,F49V,2.3 kcal/mol
14,F49L,3.4 kcal/mol
15,F49G,0.912 kcal/mol
16,F49H,1.88 kcal/mol
17,F49C,3.83 kcal/mol
18,F49S,1.94 kcal/mol
19,F49I,2.63 kcal/mol
20,F49P,-0.719 kcal/mol
21,F49M,4.22 kcal/mol
22,F49A,1.48 kcal/mol
23,F49K,2.81 kcal/mol
24,F49W,4.88 kcal/mol

row,Variant,folding stability dG
1,F49E,0.945 kcal/mol
2,T44Q,1.26 kcal/mol
3,T44K,0.416 kcal/mol
4,T44L,0.417 kcal/mol
5,T44F,0.599 kcal/mol
6,T44C,0.909 kcal/mol
7,T44H,0.98 kcal/mol
8,T44D,1.14 kcal/mol
9,T44I,-0.332 kcal/mol
10,T44Y,0.599 kcal/mol
11,T44E,0.228 kcal/mol
12,T44M,0.443 kcal/mol
13,T44R,0.922 kcal/mol
14,T44S,3.08 kcal/mol
15,T44G,0.839 kcal/mol
16,T44V,0.057 kcal/mol
17,T44N,2.06 kcal/mol
18,T44W,0.672 kcal/mol
19,T44A,0.515 kcal/mol
20,K46S,2.48 kcal/mol
21,K46I,2.34 kcal/mol
22,K46C,3.37 kcal/mol
23,K46R,3.66 kcal/mol
24,K46A,3.05 kcal/mol

row,Variant,folding stability dG
1,K46W,1.73 kcal/mol
2,K46E,2.94 kcal/mol
3,K46N,3.02 kcal/mol
4,K46Y,2.02 kcal/mol
5,K46T,1.95 kcal/mol
6,K46L,3.56 kcal/mol
7,K46H,2.64 kcal/mol
8,K46D,2.47 kcal/mol
9,K46G,2.14 kcal/mol
10,K46M,3.47 kcal/mol
11,K46F,2.48 kcal/mol
12,K46V,2.21 kcal/mol
13,I50Y,-0.106 kcal/mol
14,I50F,2.01 kcal/mol
15,I50A,0.132 kcal/mol
16,I50V,2.59 kcal/mol
17,I50P,-0.401 kcal/mol
18,I50M,0.656 kcal/mol
19,I50C,0.571 kcal/mol
20,I50L,1.58 kcal/mol
21,I50D,-0.59 kcal/mol
22,I50W,-0.594 kcal/mol
